{"source": "paper PMC12794319", "about": "(Biochemical Journal, 2025)", "binders": {"B1": {"name": "human HAI-2 (hepatocyte growth factor activator inhibitor-2) ectodomain (domain or fragment, UniProt O43291-1 36-196, looked up)", "chain": "DFCLVSKVVGRCRASMPRWWYNVTDGSCQLFVYGGCDGNSNNYLTKEECLKKCATVTENATGDLATSRNAADSSVPSAPRRQDSEDHSSDMFNYEEYCTANAVTGPCRASFPRWYFDVERNSCNNFIYGGCRGNKNSYRSEEACMLRCFRQQENPPLPLGS", "notes": "source: FreeStyle 293 F (HEK293F), pcDNA3.1; purified (Ni-NTA IMAC, size-exclusion chromatography)"}}, "key": {"[1]": {"biological_target": "T1, human wildtype TMPRSS2 ectodomain (activated, two-chain) (human, UniProt O15393-1 107-255; O15393-1 256-492)", "T1 construct": "TMPRSS2, human, UniProt O15393-1; held to the SP domain by a disulfide bond after cleavage; Expressed as one chain 107-492 with an Ig kappa leader; also called Human TMPRSS2; Hu TMPRSS2; source: FreeStyle 293 F (HEK293F), co-transfected with full-length HAI-2; purified from the supernatant (G25, Ni-NTA IMAC, size-exclusion chromatography)", "T1 sequence (O15393 107-255, chain 1 of 2)": "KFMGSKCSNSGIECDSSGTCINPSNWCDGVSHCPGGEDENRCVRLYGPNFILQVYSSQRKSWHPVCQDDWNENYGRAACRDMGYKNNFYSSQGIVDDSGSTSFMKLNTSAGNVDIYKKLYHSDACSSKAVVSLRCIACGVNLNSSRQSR", "T1 sequence (O15393 256-492, chain 2 of 2)": "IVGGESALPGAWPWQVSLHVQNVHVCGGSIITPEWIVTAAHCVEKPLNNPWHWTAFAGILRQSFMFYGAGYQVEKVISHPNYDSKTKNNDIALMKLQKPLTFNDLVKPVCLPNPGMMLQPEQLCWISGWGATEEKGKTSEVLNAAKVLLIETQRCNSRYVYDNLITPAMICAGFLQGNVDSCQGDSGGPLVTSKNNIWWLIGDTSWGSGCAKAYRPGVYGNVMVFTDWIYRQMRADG", "experiment": "enzyme inhibition kinetics (tight-binding inhibition, fit to the Morrison equation); 50 pM human or hamster TMPRSS2 incubated with a 2/3-fold serial dilution of HAI-2 (300 to 5.2 pM) for 16 hours at room temperature; rates on the fluorogenic substrate Boc-Gln-Ala-Arg-AMC; equilibrium inhibitory constant; triplicate", "details": "both partners purified"}, "[2]": {"biological_target": "T2, Syrian hamster wildtype TMPRSS2 ectodomain (activated, two-chain) (Syrian hamster (Mesocricetus auratus), UniProt A0A1U8C7X1 108-254; A0A1U8C7X1 255-491)", "T2 construct": "TMPRSS2, Syrian hamster (Mesocricetus auratus), UniProt printed as 'A0A1U8C7 × 1'; N-terminal non-catalytic part of the ectodomain construct 108-491 up to the arginine of the scissile bond, R254; Expressed as one chain 108-491 with an Ig kappa leader; also called Hamster TMPRSS2; Ham TMPRSS2; source: FreeStyle 293 F (HEK293F), co-transfected with full-length HAI-2; purified from the supernatant …", "T2 sequence (chain, as listed by the source, chain 1 of 2)": "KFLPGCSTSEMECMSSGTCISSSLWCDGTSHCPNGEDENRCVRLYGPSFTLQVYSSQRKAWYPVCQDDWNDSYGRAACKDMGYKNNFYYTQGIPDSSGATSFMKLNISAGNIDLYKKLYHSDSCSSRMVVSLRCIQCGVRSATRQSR", "T2 sequence (chain, as listed by the source, chain 2 of 2)": "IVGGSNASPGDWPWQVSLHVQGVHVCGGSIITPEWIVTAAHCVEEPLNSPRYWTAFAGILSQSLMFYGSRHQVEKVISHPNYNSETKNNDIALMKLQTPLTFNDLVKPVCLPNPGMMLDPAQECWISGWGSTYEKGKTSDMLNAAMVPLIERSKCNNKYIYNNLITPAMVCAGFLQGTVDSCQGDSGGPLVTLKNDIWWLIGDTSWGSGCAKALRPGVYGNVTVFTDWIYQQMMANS", "experiment": "enzyme inhibition kinetics (tight-binding inhibition, fit to the Morrison equation); 50 pM human or hamster TMPRSS2 incubated with a 2/3-fold serial dilution of HAI-2 (300 to 5.2 pM) for 16 hours at room temperature; rates on the fluorogenic substrate Boc-Gln-Ala-Arg-AMC; equilibrium inhibitory constant; triplicate", "details": "both partners purified"}}, "data": [{"binder": "B1", "values": [{"measurement": "Ki", "setting": "[1]", "value": 4.6, "unit": "pM"}, {"measurement": "Ki", "setting": "[2]", "value": 0.7, "unit": "pM"}]}]}
